Assay results: publication PMC9352680, “A comprehensive thermodynamic model for RNA binding by the Saccharomyces cerevisiae Pumilio protein PUF4”
Residue numbers refer to the chain shown, from its start. Names may count otherwise.

B1: Id_ii_S4_P3E.2_K3.1_C3.2_[C-2G]_[T-1G]_H3.1_A3.1_F3.1_T3.2_[T9A]_[A10G] (ssRNA)
RNA: UUUGACAACUGAUCGUUCUUUCUGGUGUAUAUAAGUUCUUUCUCGAUCAGUUGUCUUU
B2: Id_ii_S4_P3E.2_K3.1_C3.2_[C-2T]_[T-1C]_H3.1_A3.1_F3.1_T3.2_[T9A]_[A10T] (ssRNA)
RNA: B1 RNA with G24U, G25C, G35U
B3: Id_ii_S4_P3E.2_K3.1_C3.2_[C-2T]_[T-1C]_H3.1_A3.1_F3.1_T3.2_[T9C] (ssRNA)
RNA: B1 RNA with G24U, G25C, A34C, G35A
B4: Id_ii_S4_P3E.2_K3.1_C3.2_[C-2T]_H3.1_A3.1_F3.1_T3.2_[T9G]_[A10T] (ssRNA)
RNA: B1 RNA with G24U, G25U, A34G, G35U
B5: Id_ii_S4_P3E.2_K3.1_C3.2_[C-2T]_[T-1C]_H3.1_A3.1_F3.1_T3.2_[A10T] (ssRNA)
RNA: B1 RNA with G24U, G25C, A34U, G35U
B6: Id_ii_S4_P3E.2_K3.1_C3.2_[C-2T]_H3.1_A3.1_F3.1_T3.2_[A10T] (ssRNA)
RNA: B1 RNA with G24U, G25U, A34U, G35U
B7: Id_ii_S4_P3E.2_K3.1_C3.2_[C-2T]_[T-1A]_H3.1_A3.1_F3.1_T3.2_[A10T] (ssRNA)
RNA: B1 RNA with G24U, G25A, A34U, G35U
B8: Id_ii_S4_P3E.2_K3.1_C3.2_[C-2T]_H3.1_A3.1_F3.1_T3.2_[A10C] (ssRNA)
RNA: B1 RNA with G24U, G25U, A34U, G35C
B9: Id_ii_S4_P3E.2_K3.1_C3.2_[C-2G]_[T-1C]_H3.1_A3.1_F3.1_T3.2_[T9C]_[A10C] (ssRNA)
RNA: B1 RNA with G25C, A34C, G35C
B10: Id_ii_S4_P3E.2_K3.1_C3.2_[C-2T]_[T-1A]_H3.1_A3.1_F3.1_T3.2_[T9C]_[A10C] (ssRNA)
RNA: B1 RNA with G24U, G25A, A34C, G35C
B11: Id_ii_S4_P3E.2_K3.1_C3.2_[C-2T]_H3.1_A3.1_F3.1_T3.2_[T9C]_[A10C] (ssRNA)
RNA: B1 RNA with G24U, G25U, A34C, G35C
B12: Id_ii_S4_P3E.2_K3.1_C3.2_[C-2G]_H3.1_A3.1_F3.1_T3.2 (ssRNA)
RNA: B1 RNA with G25U, A34U, G35A
B13: Id_ii_S4_P3E.2_K3.1_C3.2_[C-2T]_[T-1G]_H3.1_A3.1_F3.1_T3.2_[T9A]_[A10T] (ssRNA)
RNA: B1 RNA with G24U, G35U
B14: Id_ii_S4_P3E.2_K3.1_C3.2_[C-2T]_[T-1A]_H3.1_A3.1_F3.1_T3.2_[T9A] (ssRNA)
RNA: B1 RNA with G24U, G25A, G35A
B15: Id_ii_S4_P3E.2_K3.1_C3.2_[C-2T]_[T-1C]_H3.1_A3.1_F3.1_T3.2_[T9A]_[A10C] (ssRNA)
RNA: B1 RNA with G24U, G25C, G35C
B16: Id_ii_S4_P3E.2_K3.1_C3.2_[C-2T]_H3.1_A3.1_F3.1_T3.2_[T9A] (ssRNA)
RNA: B1 RNA with G24U, G25U, G35A
B17: Id_ii_S4_P3E.2_K3.1_C3.2_[C-2T]_[T-1C]_H3.1_A3.1_F3.1_T3.2_[T9C]_[A10T] (ssRNA)
RNA: B1 RNA with G24U, G25C, A34C, G35U
B18: Id_ii_S4_P3E.2_K3.1_C3.2_[C-2T]_[T-1A]_H3.1_A3.1_F3.1_T3.2_[T9G]_[A10C] (ssRNA)
RNA: B1 RNA with G24U, G25A, A34G, G35C
B19: Id_ii_S4_P3E.2_K3.1_C3.2_[C-2T]_[T-1A]_H3.1_A3.1_F3.1_T3.2_[T9A]_[A10C] (ssRNA)
RNA: B1 RNA with G24U, G25A, G35C
B20: Id_ii_S4_P3E.2_K3.1_C3.2_[C-2G]_H3.1_A3.1_F3.1_T3.2_[T9C]_[A10C] (ssRNA)
RNA: B1 RNA with G25U, A34C, G35C
B21: Id_ii_S4_P3E.2_K3.1_C3.2_[C-2G]_[T-1C]_H3.1_A3.1_F3.1_T3.2_[T9C] (ssRNA)
RNA: B1 RNA with G25C, A34C, G35A
B22: Id_ii_S4_P3E.2_K3.1_C3.2_[C-2T]_H3.1_A3.1_F3.1_T3.2_[T9C]_[A10T] (ssRNA)
RNA: B1 RNA with G24U, G25U, A34C, G35U
B23: Id_ii_S4_P3E.2_K3.1_C3.2_[C-2G]_[T-1G]_H3.1_A3.1_F3.1_T3.2_[A10T] (ssRNA)
RNA: B1 RNA with A34U, G35U
B24: Id_ii_S4_P3E.2_K3.1_C3.2_[C-2T]_[T-1C]_H3.1_A3.1_F3.1_T3.2_[T9G]_[A10T] (ssRNA)
RNA: B1 RNA with G24U, G25C, A34G, G35U
B25: Id_ii_S4_P3E.2_K3.1_C3.2_[C-2T]_H3.1_A3.1_F3.1_T3.2_[T9A]_[A10C] (ssRNA)
RNA: B1 RNA with G24U, G25U, G35C
B26: Id_ii_S4_P3E.2_K3.1_C3.2_[C-2T]_[T-1A]_H3.1_A3.1_F3.1_T3.2_[T9C]_[A10T] (ssRNA)
RNA: B1 RNA with G24U, G25A, A34C, G35U
B27: Id_ii_S4_P3E.2_K3.1_C3.2_[C-2G]_[T-1G]_H3.1_A3.1_F3.1_T3.2_[T9A]_[A10T] (ssRNA)
RNA: B1 RNA with G35U
B28: Id_ii_S4_P3E.2_K3.1_C3.2_[C-2G]_H3.1_A3.1_F3.1_T3.2_[T9A]_[A10T] (ssRNA)
RNA: B1 RNA with G25U, G35U

biological target: T1, PUF4 RNA-binding domain (Saccharomyces cerevisiae, UniProt P25339 537-888); experiment: Mg; RNA-MaP; 20 mM Na-HEPES pH 7.4, 30 mM KOAc, 0.75 mM MgCl2, 0.1% Tween-20, 5% glycerol, 0.1 mg/mL BSA, 2 mM DTT; 25 C; 0.0125-409.6 nM protein; details: tags: N-His6-TEV cleaved; C-SNAP kept, Cy3B-labelled; label: tethered on chip by stalled RNA polymerase
T1 sequence: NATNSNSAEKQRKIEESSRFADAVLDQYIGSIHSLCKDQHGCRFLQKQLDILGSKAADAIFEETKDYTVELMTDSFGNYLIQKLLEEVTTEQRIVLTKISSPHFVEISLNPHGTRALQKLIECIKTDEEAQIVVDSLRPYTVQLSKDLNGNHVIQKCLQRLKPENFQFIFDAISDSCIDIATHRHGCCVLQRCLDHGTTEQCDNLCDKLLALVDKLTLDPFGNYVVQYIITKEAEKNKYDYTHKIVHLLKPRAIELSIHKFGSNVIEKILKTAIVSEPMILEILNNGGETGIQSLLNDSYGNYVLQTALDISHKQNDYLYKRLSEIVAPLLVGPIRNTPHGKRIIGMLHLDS

Binder | Kd [nM]
UCUCUUUGCCUUAUUAUCUCUU (ssRNA) [Ib_S1_P5E.1_K5.1_C5.1_H5.1_[T3C]_[A4C]_A5.1_F5.1_T5.1] | > 2300
ACAAACCUACACUUAUUAACACAAAC (ssRNA) [Id_ii_S3_P5E.4_K5.3_C5.2_H5.3_A5.1_F5.1_T5.2_[T11A]_[A12C]] | > 2300
UCUCUUUGACUUAUUAUCUCUU (ssRNA) [Ib_S1_P5E.1_K5.1_C5.1_H5.1_[T3A]_[A4C]_A5.1_F5.1_T5.1] | > 2300
ACAAACCCACACUUAUUAAGACAAAC (ssRNA) [Id_ii_S3_P5E.4_K5.3_C5.2_[T-1C]_H5.3_A5.1_F5.1_T5.2_[T11A]_[A12G]] | > 2300
B1 | 9.31
B2 | 1.51
B3 | 9.13
B4 | 2.14
B5 | 1.29
B6 | 1.75
B7 | 5.5
B8 | 1.81
B9 | 10.5
B10 | 6
B11 | 2.87
B12 | 2.31
B13 | 1.68
B14 | 20.1
B15 | 2.96
B16 | 6.6

Binder | Kd [nM]
B17 | 2.78
B18 | 6.05
B19 | 15.9
B20 | 21.8
B21 | 46.9
B22 | 2.81
B23 | 3.9
B24 | 3.63
B25 | 4.42
B26 | 6.04
B27 | 5.5
B28 | 3.41
ACAAACCUACACUUAUUAUCACAAAC (ssRNA) [Id_ii_S3_P5E.4_K5.3_C5.2_H5.3_A5.1_F5.1_T5.2_[A12C]] | > 2300
ACAAACCCACACUUAUUAUGACAAAC (ssRNA) [Id_ii_S3_P5E.4_K5.3_C5.2_[T-1C]_H5.3_A5.1_F5.1_T5.2_[A12G]] | > 2300
ACAAACCUACACUUAUUAUUACAAAC (ssRNA) [Id_ii_S3_P5E.4_K5.3_C5.2_H5.3_A5.1_F5.1_T5.2_[A12T]] | > 2300
UCUCUUUGUAUGAUUAUCUCUU (ssRNA) [Ia_S1_P5E.1_K5.1_C5.1_H5.1_A5.1_[T6G]_F5.1_T5.1] | 23
ACAAACCCACACUUAUUAUAACAAAC (ssRNA) [Id_ii_S3_P5E.4_K5.3_C5.2_[T-1C]_H5.3_A5.1_F5.1_T5.2] | > 2300
ACAAACCUACACUUAUUAAAACAAAC (ssRNA) [Id_ii_S3_P5E.4_K5.3_C5.2_H5.3_A5.1_F5.1_T5.2_[T11A]] | > 2300
ACAAACCGACACUUAUUACGACAAAC (ssRNA) [Id_ii_S3_P5E.4_K5.3_C5.2_[T-1G]_H5.3_A5.1_F5.1_T5.2_[T11C]_[A12G]] | > 2300
ACAAACAUACACUUAUUAAUACAAAC (ssRNA) [Id_ii_S3_P5E.4_K5.3_C5.2_[C-2A]_H5.3_A5.1_F5.1_T5.2_[T11A]_[A12T]] | > 2300

Binder | Kd [nM]
UCUCUUUAUGUUAUUAUCUCUU (ssRNA) [Ib_S1_P5E.1_K5.1_C5.1_H5.1_[G2A]_[A4G]_A5.1_F5.1_T5.1] | 2070
ACAAACAAACACUUAUUAUCACAAAC (ssRNA) [Id_ii_S3_P5E.4_K5.3_C5.2_[C-2A]_[T-1A]_H5.3_A5.1_F5.1_T5.2_[A12C]] | > 2300
UCUCUUUAUUUUAUUAUCUCUU (ssRNA) [Ib_S1_P5E.1_K5.1_C5.1_H5.1_[G2A]_[A4T]_A5.1_F5.1_T5.1] | 1550
ACAAACAUACACUUAUUACGACAAAC (ssRNA) [Id_ii_S3_P5E.4_K5.3_C5.2_[C-2A]_H5.3_A5.1_F5.1_T5.2_[T11C]_[A12G]] | > 2300
ACAAACCGACACUUAUUACCACAAAC (ssRNA) [Id_ii_S3_P5E.4_K5.3_C5.2_[T-1G]_H5.3_A5.1_F5.1_T5.2_[T11C]_[A12C]] | > 2300
ACAAACCAACACUUAUUACUACAAAC (ssRNA) [Id_ii_S3_P5E.4_K5.3_C5.2_[T-1A]_H5.3_A5.1_F5.1_T5.2_[T11C]_[A12T]] | > 2300
ACAAACCGACACUUAUUACUACAAAC (ssRNA) [Id_ii_S3_P5E.4_K5.3_C5.2_[T-1G]_H5.3_A5.1_F5.1_T5.2_[T11C]_[A12T]] | > 2300
ACAAACCUACACUUAUUAGCACAAAC (ssRNA) [Id_ii_S3_P5E.4_K5.3_C5.2_H5.3_A5.1_F5.1_T5.2_[T11G]_[A12C]] | > 2300
ACAAACAAACACUUAUUAAAACAAAC (ssRNA) [Id_ii_S3_P5E.4_K5.3_C5.2_[C-2A]_[T-1A]_H5.3_A5.1_F5.1_T5.2_[T11A]] | > 2300
ACAAACCUACACUUAUUACUACAAAC (ssRNA) [Id_ii_S3_P5E.4_K5.3_C5.2_H5.3_A5.1_F5.1_T5.2_[T11C]_[A12T]] | > 2300
ACAAACCCACACUUAUUACCACAAAC (ssRNA) [Id_ii_S3_P5E.4_K5.3_C5.2_[T-1C]_H5.3_A5.1_F5.1_T5.2_[T11C]_[A12C]] | > 2300
UCUCUUUAUCUUAUUAUCUCUU (ssRNA) [Ib_S1_P5E.1_K5.1_C5.1_H5.1_[G2A]_[A4C]_A5.1_F5.1_T5.1] | > 2300
ACAAACAAACACUUAUUAAGACAAAC (ssRNA) [Id_ii_S3_P5E.4_K5.3_C5.2_[C-2A]_[T-1A]_H5.3_A5.1_F5.1_T5.2_[T11A]_[A12G]] | > 2300
ACAAACAUACACUUAUUAGGACAAAC (ssRNA) [Id_ii_S3_P5E.4_K5.3_C5.2_[C-2A]_H5.3_A5.1_F5.1_T5.2_[T11G]_[A12G]] | > 2300
ACAAACAAACACUUAUUAUAACAAAC (ssRNA) [Id_ii_S3_P5E.4_K5.3_C5.2_[C-2A]_[T-1A]_H5.3_A5.1_F5.1_T5.2] | > 2300
UCUCUUUGCUUUAUUAUCUCUU (ssRNA) [Ib_S1_P5E.1_K5.1_C5.1_H5.1_[T3C]_[A4T]_A5.1_F5.1_T5.1] | > 2300
ACAAACCUACACUUAUUAUGACAAAC (ssRNA) [Id_ii_S3_P5E.4_K5.3_C5.2_H5.3_A5.1_F5.1_T5.2_[A12G]] | > 2300
ACAAACAAACACUUAUUAUGACAAAC (ssRNA) [Id_ii_S3_P5E.4_K5.3_C5.2_[C-2A]_[T-1A]_H5.3_A5.1_F5.1_T5.2_[A12G]] | > 2300
ACAAACCGACACUUAUUAUAACAAAC (ssRNA) [Id_ii_S3_P5E.4_K5.3_C5.2_[T-1G]_H5.3_A5.1_F5.1_T5.2] | > 2300
ACAAACCCACACUUAUUAUCACAAAC (ssRNA) [Id_ii_S3_P5E.4_K5.3_C5.2_[T-1C]_H5.3_A5.1_F5.1_T5.2_[A12C]] | > 2300
